Results reported in patent US20040265972A1.

Molecular target: human TSH receptor stably expressed on Chinese Hamster Ovary (CHO) cells (CHO-hTSHR clone JP09 and clone JP26) (human) (UniProt P16473)
Experiment: cell-based or functional assay

Vmax (cyclic AMP production), fold increase compared to wild type TSH: 1.5 fold
in vitro activity, fold over that of the α4K/TSH-β wild type heterodimer: 3 to 4 fold
potency (cyclic AMP production), fold increase compared to wild type TSH: 200 fold
Substance: hTSH α4K/TSH-β-CTEP (heterodimer of mutant α4K subunit and human TSH-β subunit fused to the CTEP of hCG) (from UniProt P0DN86 134-165) (ligand)
